Values quoted from earlier work, collected in patent EP1140148B1, “SHELF-STABLE SOLUTION FORMULATION OF GLUCAGON-LIKE PEPTIDE-1” (ELI LILLY AND COMPANY, priority 1998, dated 2005).

Settings: stored at 4° C; as early as; Mojsov 1992

Substance: GLP-1(7-37): Glucagon-like peptide-1 (7-37), insulinotropic peptide hormone
- by-products found after sample preparation: eleven
